Data: the supplement of paper PMC10065799, “High-throughput profiling of sequence recognition by tyrosine kinases and SH2 domains using bacterial peptide display” (eLife, 2023)

What was measured:
[1] = tested on: c-Src; assay: phosphorylation enrichment, bacterial display (enrichment ratio); higher = better substrate or ligand; peptides without Tyr show the background
[2] = biological target: EPHB2 (UniProt P29323); assay: as above
[3] = biological target: EPHB1 (UniProt P54762); assay: as above
[4] = biological target: FGFR1 (UniProt P11362); assay: as above
[5] = tested on: AncSZ; assay: as above
[6] = biological target: FGFR3 (UniProt P22607); assay: as above
[7] = tested on: c-Abl (mouse); assay: as above
[8] = biological target: Jak2 (UniProt O60674); assay: as above
[9] = biological target: MERTK (UniProt Q12866); assay: as above
[10] = biological target: Fyn (UniProt P06241); assay: as above
[11] = biological target: Hck (UniProt P08631); assay: as above
[12] = biological target: Fes (UniProt P07332); assay: as above
[13] = tested on: Fer (mouse); assay: as above
[14] = biological target: SHP2-C SH2; assay: SH2 binding enrichment of the phosphorylated peptide, bacterial display (enrichment ratio); higher = better substrate or ligand; peptides without Tyr show the background
[15] = biological target: c-Src SH2; assay: as above
[16] = biological target: Grb2 SH2 (UniProt P62993); assay: as above
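Wherever SH2 binding enrichment of the phosphorylated peptide, bacterial display is given: peptide library displayed on the E. coli surface as eCPX fusions, selected cells deep-sequenced, score is each peptide's frequency after selection divided by its frequency in the input.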
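Wherever phosphorylation enrichment, bacterial display is given: 11-residue human phosphosite peptides and single-mutation variants displayed on the E. coli surface, counted by deep sequencing, each peptide's frequency after selection divided by its frequency in the unselected input library; frequency after pTyr selection over input frequency; kinase dosed for 20-30% of maximal phosphorylation in three min.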

Sequence of FGFR1 (P11362 whole entry, looked up): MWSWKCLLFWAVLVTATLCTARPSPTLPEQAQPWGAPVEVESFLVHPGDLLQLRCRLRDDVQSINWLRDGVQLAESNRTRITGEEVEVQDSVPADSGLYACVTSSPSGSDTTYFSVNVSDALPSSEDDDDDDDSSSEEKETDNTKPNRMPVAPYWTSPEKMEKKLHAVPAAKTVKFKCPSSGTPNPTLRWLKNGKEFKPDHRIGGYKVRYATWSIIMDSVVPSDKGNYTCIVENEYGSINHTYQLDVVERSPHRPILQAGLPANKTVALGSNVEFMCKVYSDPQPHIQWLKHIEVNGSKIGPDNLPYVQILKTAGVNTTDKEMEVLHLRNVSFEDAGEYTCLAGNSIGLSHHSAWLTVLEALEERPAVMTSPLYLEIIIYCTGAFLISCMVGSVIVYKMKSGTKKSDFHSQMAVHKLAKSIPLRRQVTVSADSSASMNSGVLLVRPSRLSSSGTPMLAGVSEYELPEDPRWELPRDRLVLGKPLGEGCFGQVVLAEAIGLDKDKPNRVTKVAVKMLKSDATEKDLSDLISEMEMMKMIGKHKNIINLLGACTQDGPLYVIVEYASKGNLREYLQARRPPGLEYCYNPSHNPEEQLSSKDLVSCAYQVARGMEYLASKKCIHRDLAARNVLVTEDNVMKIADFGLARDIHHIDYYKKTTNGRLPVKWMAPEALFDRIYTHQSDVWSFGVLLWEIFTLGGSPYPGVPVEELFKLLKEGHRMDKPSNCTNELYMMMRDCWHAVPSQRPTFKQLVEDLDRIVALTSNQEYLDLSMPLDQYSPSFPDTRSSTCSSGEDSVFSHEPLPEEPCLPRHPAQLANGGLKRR
Sequence of MERTK (Q12866 whole entry, looked up): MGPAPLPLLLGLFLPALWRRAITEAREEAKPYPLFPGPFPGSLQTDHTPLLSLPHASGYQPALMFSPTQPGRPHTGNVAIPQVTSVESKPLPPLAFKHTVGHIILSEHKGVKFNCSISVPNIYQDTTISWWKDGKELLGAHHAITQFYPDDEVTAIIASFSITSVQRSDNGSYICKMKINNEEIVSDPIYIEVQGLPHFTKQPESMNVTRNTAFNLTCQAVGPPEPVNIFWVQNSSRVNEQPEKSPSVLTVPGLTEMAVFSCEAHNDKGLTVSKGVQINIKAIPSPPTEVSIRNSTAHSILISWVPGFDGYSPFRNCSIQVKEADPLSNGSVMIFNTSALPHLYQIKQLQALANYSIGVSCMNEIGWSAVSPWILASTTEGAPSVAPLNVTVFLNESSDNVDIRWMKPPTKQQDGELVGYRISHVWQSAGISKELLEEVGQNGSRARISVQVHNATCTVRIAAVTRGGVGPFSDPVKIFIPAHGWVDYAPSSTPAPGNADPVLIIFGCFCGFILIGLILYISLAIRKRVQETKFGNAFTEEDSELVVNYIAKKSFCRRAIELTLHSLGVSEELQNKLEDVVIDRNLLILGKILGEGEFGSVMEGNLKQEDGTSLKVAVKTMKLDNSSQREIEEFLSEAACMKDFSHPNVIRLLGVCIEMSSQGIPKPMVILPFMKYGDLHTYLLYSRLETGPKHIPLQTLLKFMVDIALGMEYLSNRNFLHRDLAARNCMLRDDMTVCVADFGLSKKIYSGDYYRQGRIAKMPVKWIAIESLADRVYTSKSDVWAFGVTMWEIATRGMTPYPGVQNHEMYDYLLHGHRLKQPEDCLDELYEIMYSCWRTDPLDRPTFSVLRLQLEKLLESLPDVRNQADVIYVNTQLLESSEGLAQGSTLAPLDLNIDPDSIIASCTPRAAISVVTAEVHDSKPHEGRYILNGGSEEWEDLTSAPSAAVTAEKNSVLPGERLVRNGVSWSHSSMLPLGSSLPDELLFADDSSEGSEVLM
Sequence of Fes (P07332 whole entry, looked up): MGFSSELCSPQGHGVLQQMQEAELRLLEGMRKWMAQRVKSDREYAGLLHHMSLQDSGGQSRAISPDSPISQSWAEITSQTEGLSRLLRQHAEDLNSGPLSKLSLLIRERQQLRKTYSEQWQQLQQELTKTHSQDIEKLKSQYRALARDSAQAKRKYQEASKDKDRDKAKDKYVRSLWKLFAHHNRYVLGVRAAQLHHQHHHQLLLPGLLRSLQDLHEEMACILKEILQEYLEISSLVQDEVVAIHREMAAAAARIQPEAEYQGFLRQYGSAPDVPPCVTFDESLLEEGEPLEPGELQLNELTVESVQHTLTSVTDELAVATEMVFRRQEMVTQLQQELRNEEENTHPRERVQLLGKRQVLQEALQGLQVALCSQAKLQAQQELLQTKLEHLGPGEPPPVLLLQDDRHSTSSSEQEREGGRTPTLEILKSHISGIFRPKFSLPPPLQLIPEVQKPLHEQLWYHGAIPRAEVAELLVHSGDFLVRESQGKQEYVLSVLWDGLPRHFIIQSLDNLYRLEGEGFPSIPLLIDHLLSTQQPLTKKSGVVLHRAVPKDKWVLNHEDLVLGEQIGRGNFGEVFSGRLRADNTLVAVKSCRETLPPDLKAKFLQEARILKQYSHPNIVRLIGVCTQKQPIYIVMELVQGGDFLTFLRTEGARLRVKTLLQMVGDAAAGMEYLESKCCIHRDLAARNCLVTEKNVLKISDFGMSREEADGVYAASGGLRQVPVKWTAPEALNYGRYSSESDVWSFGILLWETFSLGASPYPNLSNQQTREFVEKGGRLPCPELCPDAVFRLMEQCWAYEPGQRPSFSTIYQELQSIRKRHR
Sequence of EPHB1 (P54762 whole entry, looked up): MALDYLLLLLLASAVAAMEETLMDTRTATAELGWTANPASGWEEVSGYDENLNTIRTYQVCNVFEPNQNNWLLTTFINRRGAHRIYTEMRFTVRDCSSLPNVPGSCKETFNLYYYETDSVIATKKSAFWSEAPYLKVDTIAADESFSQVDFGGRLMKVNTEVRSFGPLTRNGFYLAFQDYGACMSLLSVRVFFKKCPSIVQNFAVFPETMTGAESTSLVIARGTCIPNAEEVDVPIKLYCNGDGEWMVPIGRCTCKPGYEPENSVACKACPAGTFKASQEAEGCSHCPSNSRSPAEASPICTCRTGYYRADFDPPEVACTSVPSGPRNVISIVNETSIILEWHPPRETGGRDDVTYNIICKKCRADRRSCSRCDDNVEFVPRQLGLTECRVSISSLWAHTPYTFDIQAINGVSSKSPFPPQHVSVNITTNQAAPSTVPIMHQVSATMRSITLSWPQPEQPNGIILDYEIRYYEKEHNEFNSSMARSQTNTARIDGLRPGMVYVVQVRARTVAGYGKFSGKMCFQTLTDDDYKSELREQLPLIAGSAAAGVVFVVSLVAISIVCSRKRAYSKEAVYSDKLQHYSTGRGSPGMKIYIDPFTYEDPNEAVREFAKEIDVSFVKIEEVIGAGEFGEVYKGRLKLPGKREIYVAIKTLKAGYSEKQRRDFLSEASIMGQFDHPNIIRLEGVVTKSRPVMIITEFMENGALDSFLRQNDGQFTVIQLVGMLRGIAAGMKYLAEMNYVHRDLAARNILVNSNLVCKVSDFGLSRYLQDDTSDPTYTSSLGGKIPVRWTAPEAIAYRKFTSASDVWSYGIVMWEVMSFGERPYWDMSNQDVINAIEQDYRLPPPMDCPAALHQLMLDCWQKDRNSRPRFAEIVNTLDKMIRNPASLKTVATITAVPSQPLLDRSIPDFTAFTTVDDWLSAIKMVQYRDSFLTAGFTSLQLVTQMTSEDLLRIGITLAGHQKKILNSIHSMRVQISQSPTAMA
Sequence of FGFR3 (P22607 whole entry, looked up): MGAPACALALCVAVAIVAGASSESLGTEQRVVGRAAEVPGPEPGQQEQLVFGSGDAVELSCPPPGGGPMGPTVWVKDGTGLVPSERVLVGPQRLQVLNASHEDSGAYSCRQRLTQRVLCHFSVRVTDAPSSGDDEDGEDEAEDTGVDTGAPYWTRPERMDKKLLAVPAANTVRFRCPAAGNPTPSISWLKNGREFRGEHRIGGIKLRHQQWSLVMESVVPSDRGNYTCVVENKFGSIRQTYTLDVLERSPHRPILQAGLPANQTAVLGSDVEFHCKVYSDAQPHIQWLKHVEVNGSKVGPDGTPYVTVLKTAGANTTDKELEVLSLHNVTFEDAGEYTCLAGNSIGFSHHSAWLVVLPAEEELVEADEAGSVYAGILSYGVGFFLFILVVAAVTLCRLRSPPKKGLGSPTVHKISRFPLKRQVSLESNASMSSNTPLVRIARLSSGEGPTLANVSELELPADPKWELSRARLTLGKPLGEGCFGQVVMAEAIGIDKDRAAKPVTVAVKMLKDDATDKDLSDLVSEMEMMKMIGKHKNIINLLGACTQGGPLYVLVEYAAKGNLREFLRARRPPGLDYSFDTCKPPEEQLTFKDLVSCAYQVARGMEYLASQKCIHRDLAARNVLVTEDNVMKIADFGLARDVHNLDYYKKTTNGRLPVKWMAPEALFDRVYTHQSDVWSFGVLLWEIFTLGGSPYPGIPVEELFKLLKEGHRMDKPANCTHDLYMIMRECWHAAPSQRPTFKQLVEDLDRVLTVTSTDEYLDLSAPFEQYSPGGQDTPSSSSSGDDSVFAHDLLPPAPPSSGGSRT
Sequence of Fyn (P06241 whole entry, looked up): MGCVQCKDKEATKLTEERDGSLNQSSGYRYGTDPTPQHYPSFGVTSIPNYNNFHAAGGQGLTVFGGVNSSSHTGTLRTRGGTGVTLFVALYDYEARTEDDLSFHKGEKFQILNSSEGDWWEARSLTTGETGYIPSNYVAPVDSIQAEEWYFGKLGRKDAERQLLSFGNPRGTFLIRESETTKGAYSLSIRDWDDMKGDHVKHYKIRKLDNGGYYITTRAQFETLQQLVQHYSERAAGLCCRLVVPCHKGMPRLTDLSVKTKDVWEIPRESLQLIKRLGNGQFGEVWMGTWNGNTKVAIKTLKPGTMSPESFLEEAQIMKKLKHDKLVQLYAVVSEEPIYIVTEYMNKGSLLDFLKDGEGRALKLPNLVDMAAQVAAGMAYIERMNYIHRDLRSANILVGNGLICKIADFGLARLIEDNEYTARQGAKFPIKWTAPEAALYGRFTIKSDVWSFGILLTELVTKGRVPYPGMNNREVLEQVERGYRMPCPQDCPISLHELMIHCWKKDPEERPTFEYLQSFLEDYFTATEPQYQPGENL

Sequence | phosphorylation enrichment [1] | phosphorylation enrichment [2] | phosphorylation enrichment [3] | phosphorylation enrichment [4] | phosphorylation enrichment [5] | phosphorylation enrichment [6] | phosphorylation enrichment [7] | phosphorylation enrichment [8] | phosphorylation enrichment [9] | phosphorylation enrichment [10] | phosphorylation enrichment [11] | phosphorylation enrichment [12] | phosphorylation enrichment [13] | SH2 binding enrichment [14] | SH2 binding enrichment [15] | SH2 binding enrichment [16]
MSRDVYSIDYY [NTRK2_Y702_T704I] | 6.79 | 1.73 | 1.47 | 4.29 | 1.54 | 3.12 | 0.538 | 0.825 | 7.16 | 8.72 | 4 | 0.9 | 1.22 | 0.804 | 1.34 | 0.918
KVKGEYDMTVP [AHNAK_Y964] | 0.414 | 0.36 | 0.491 | 0.469 | 0.669 | 0.607 | 0.372 | 0.543 | 0.463 | 0.434 | 0.443 | 0.744 | 0.637 | 0.692 | 0.499 | 0.756
NVADHYGVYKP [ATP6V0D2_Y271] | 4.89 | 0.391 | 0.401 | 0.461 | 0.571 | 0.451 | 0.587 | 0.517 | 0.356 | 5.55 | 3.71 | 0.645 | 0.424 | 0.647 | 0.597 | 0.917
HDRNTYEKFLE [TF_Y666_G671E_YF] | 0.818 | 0.64 | 0.525 | 0.432 | 1.07 | 0.522 | 0.561 | 0.859 | 0.848 | 0.741 | 0.491 | 1.03 | 0.56 | 0.639 | 3.06 | 0.972
VTSLKYSTPPF [BRIP1_Y916_S919P_YF] | 0.436 | 0.493 | 0.342 | 0.491 | 0.607 | 0.517 | 0.595 | 0.599 | 0.457 | 0.472 | 0.52 | 0.841 | 0.38 | 0.56 | 0.492 | 0.929
FGSVMYEFVGK [SLC18A1_Y251] | 3.48 | 3.28 | 5.8 | 1.35 | 2.6 | 1.35 | 1.3 | 1.38 | 11.1 | 2.57 | 8.76 | 1.76 | 15.1 | 0.445 | 0.591 | 0.684
KACNPYKPPGP | 0.699 | 0.478 | 0.464 | 0.462 | 0.629 | 0.589 | 0.524 | 0.881 | 0.543 | 0.521 | 0.496 | 0.663 | 0.521 | 0.893 | 0.76 | 1.01
IALNSCHSRNC [IFNGR1_Y397_Y397C] | 0.401 | 0.351 | 0.337 | 0.486 | 0.48 | 0.371 | 0.36 | 0.375 | 0.406 | 0.359 | 0.358 | 0.506 | 0.379 | 0.645 | 0.628 | 1
DTLASYLDKVR [KRT12_Y139_R135T] | 0.364 | 0.44 | 0.403 | 0.352 | 0.552 | 0.415 | 0.495 | 0.42 | 0.411 | 0.378 | 0.408 | 0.76 | 0.304 | 0.73 | 0.687 | 0.98
GDFFRYLAEVA [YWHAG_Y133_YF] | 0.447 | 0.51 | 0.503 | 0.683 | 1.07 | 0.664 | 0.78 | 0.964 | 0.429 | 0.432 | 0.477 | 1.18 | 0.486 | 0.561 | 0.469 | 0.763
HYPDVYAREQL [ALX3_Y181] | 0.709 | 0.513 | 0.518 | 0.651 | 0.481 | 0.58 | 0.511 | 0.892 | 0.494 | 0.906 | 1.14 | 0.912 | 0.36 | 0.471 | 0.564 | 0.802
SQQTYYRVSNM [ABCD1_Y181] | 3 | 1.12 | 1.93 | 7.77 | 0.703 | 5.82 | 0.795 | 6.19 | 3.23 | 1.47 | 3.23 | 0.678 | 0.401 | 0.789 | 0.636 | 0.853
LLGFLYFFVCS [SLC34A2_Y109] | 2.1 | 1.76 | 1.17 | 1.03 | 1.66 | 1.81 | 2.89 | 2.88 | 1.04 | 1.26 | 0.948 | 3.17 | 1.43 | 1.22 | 0.776 | 1.06
NFDLDYDSVQP [MYC_Y16_YF] | 0.814 | 0.923 | 1.28 | 0.573 | 2 | 0.608 | 0.68 | 1.06 | 0.458 | 0.572 | 0.575 | 0.974 | 0.591 | 0.898 | 0.595 | 0.872
EAESWYQTKFE [KRT75_Y342_YF] | 0.583 | 0.568 | 0.721 | 0.49 | 1.06 | 0.808 | 0.684 | 0.906 | 0.436 | 0.662 | 0.735 | 1.18 | 0.624 | 0.434 | 0.699 | 0.794
SERNNYSRVAN [CWC22_Y797] | 0.356 | 0.59 | 0.503 | 0.435 | 0.501 | 0.456 | 0.51 | 0.461 | 0.391 | 0.347 | 0.382 | 0.557 | 0.422 | 5.32 | 1.46 | 0.747
TSSAIYMNLAS [GATAD2B_Y317] | 6.07 | 3.51 | 8.76 | 3 | 0.949 | 1.94 | 3.29 | 0.997 | 8.39 | 6.11 | 6.95 | 1.01 | 3.71 | 1.46 | 1.4 | 4.48

Sequence | phosphorylation enrichment [1] | phosphorylation enrichment [2] | phosphorylation enrichment [3] | phosphorylation enrichment [4] | phosphorylation enrichment [5] | phosphorylation enrichment [6] | phosphorylation enrichment [7] | phosphorylation enrichment [8] | phosphorylation enrichment [9] | phosphorylation enrichment [10] | phosphorylation enrichment [11] | phosphorylation enrichment [12] | phosphorylation enrichment [13] | SH2 binding enrichment [14] | SH2 binding enrichment [15] | SH2 binding enrichment [16]
VCHELYNAIRD [PBRM1_Y54_T56A] | 1.33 | 0.574 | 0.543 | 0.464 | 0.939 | 0.702 | 0.693 | 0.79 | 0.43 | 0.672 | 2.62 | 0.933 | 0.567 | 0.737 | 1.66 | 0.893
EERNPYYSSAR [MCCC2_Y520_G517R] | 1.56 | 0.5 | 0.472 | 0.487 | 0.942 | 0.552 | 0.591 | 0.923 | 0.468 | 0.654 | 0.828 | 0.749 | 0.505 | 0.875 | 2.83 | 0.963
EPYKVYRIVPE [IRF8_Y110] | 0.605 | 0.54 | 0.474 | 0.521 | 0.746 | 0.612 | 0.473 | 0.658 | 0.462 | 0.641 | 0.574 | 0.728 | 0.447 | 0.646 | 0.598 | 0.762
FQQLFYLLQTN [IQGAP2_Y890_YF] | 0.779 | 0.796 | 0.884 | 0.514 | 1.51 | 1.26 | 0.897 | 1.34 | 0.867 | 0.608 | 0.688 | 1.5 | 0.561 | 1.47 | 0.892 | 1.2
KDHPDYEFQPR [SOX9_Y172_K173E_YF] | 0.425 | 0.585 | 1.05 | 0.712 | 1.81 | 0.614 | 0.509 | 0.665 | 0.319 | 0.448 | 0.504 | 0.723 | 0.475 | 0.73 | 0.568 | 0.863
KKMKRYHVGKV [HARS2_Y151] | 0.45 | 0.313 | 0.492 | 0.298 | 0.466 | 0.486 | 0.482 | 0.554 | 0.43 | 0.349 | 0.341 | 0.514 | 0.293 | 1.36 | 1.12 | 1.14
LLKAKYELLNA [POLR3A_Y714] | 0.405 | 0.491 | 0.454 | 0.423 | 0.582 | 0.493 | 0.544 | 0.707 | 0.418 | 0.466 | 0.496 | 0.614 | 0.423 | 0.444 | 1.95 | 0.964
RAYSWYQHQRA [NDST1_Y714] | 0.527 | 0.716 | 0.538 | 0.472 | 1.03 | 0.792 | 0.964 | 1.06 | 0.619 | 0.242 | 0.582 | 1.16 | 0.641 | 1.79 | 1.18 | 1.58
ITLPIYTKGSE [ANK2_Y1455_E1458G] | 0.529 | 0.478 | 0.599 | 0.392 | 0.63 | 0.502 | 0.446 | 0.571 | 0.481 | 0.581 | 0.645 | 0.759 | 0.451 | 0.715 | 0.392 | 0.78
EEGESYVCSSD [DCX_Y125] | 0.603 | 0.792 | 0.814 | 0.676 | 1.31 | 0.945 | 0.924 | 1.21 | 0.58 | 0.56 | 0.694 | 1.41 | 0.799 | 0.839 | 0.793 | 1.08
EKLQQYLAPGM [EPHB3_Y600_I601L] | 0.347 | 0.489 | 0.408 | 0.466 | 0.68 | 0.493 | 0.732 | 0.57 | 0.487 | 0.398 | 0.48 | 0.863 | 0.54 | 0.559 | 0.564 | 0.745
LHRHAYPEQRQ [DPPA2_Y127] | 0.449 | 0.594 | 0.434 | 0.505 | 0.619 | 0.577 | 0.789 | 0.53 | 0.487 | 0.502 | 0.704 | 0.967 | 0.532 | 1.11 | 1.19 | 1.14
HGEAFYSEVKP [PAK5_Y182_YF] | 2.27 | 1.37 | 2.01 | 3.57 | 1 | 2.49 | 1.02 | 0.609 | 9.01 | 2.95 | 4.38 | 1.04 | 12.3 | 0.868 | 1.22 | 0.887
SAEEDYKADAK [KCNT1_Y876_M877K] | 0.513 | 0.502 | 0.635 | 0.464 | 1.18 | 0.684 | 0.831 | 1.07 | 0.497 | 0.534 | 0.536 | 1.28 | 0.465 | 0.618 | 0.477 | 0.874
KLPFLYDDPFS [GPX2_Y127_P126L_YF] | 0.641 | 4.62 | 3.99 | 0.589 | 1.07 | 0.62 | 0.736 | 1.03 | 2.66 | 0.672 | 1.5 | 0.995 | 1.6 | 0.841 | 1.23 | 0.846
ILTLKYPIEHG [ACTA1_Y71] | 0.376 | 0.485 | 0.476 | 0.47 | 0.716 | 0.592 | 0.57 | 0.584 | 0.391 | 0.437 | 0.453 | 0.78 | 0.391 | 0.806 | 0.502 | 0.816
